Test results as given in patent US20240092847A1, “FUNCTIONAL NUCLEIC ACID MOLECULE AND METHOD” (The University Court of The University of Edinburgh, priority 2021, published 2024).

Target: T1, SOX2 (Homo sapiens, UniProt P48431)
T1 construct: endogenous in cells; host or cells: nuclear extract of GSC7 and GSC328 (patient-derived glioblastoma stem cell lines)
Assay: Biotinylated enhancer pull down with nuclear extract and mass spectrometry
Format: binding
Settings: normalised to random sequence 599
Description: The oligo was PCR-amplified using biotinylated primers. The PCR product was then SPRI purified to remove biotinylated primer dimers. These dsDNA fragments were incubated with nuclear extract from GSC7 and GSC328. They were then bound to streptavidin magnetic beads, washed three times and the frozen beads were sent for mass spectrometry analysis.
All the buffers were prepared the day before, passed through a […] filter (except the dialysis buffer) and left at 4° C. overnight. DTT and protease inhibitors were added just before use. The cells were scraped on the media and collected on 50 ml falcons, which were spun at 1350 rcf 5 minutes at 4° C. The pellet was resuspended in 50 ml of ice cold PBS, an aliquot was taken for cell counting, and spun again spun at 1350 rcf 5 minutes at 4° C. The pellet was then resuspended in 5 ml per 40 million cells of ice cold buffer A (10 mM HEPES pH 7.9, 1.5 mM MgCl2, 10 mM KCl, 0.5 mM DTT, protease inhibitors (Complete, Roche, 11697498001)) and incubated on ice for 10 min. The cell suspension was transferred to a glass Dounce homogenizer and dounced 40 times on ice. The cell suspension was transferred to a falcon and centrifuged at 1350 rcf for 10 min at 4° C. […] The supernatant was collected into new 1.5 ml tubes and quantified (Pierce BCA Protein Assay Kit, Thermo Scientific, Cat 23225). […]

T1 sequence (P48431 whole entry): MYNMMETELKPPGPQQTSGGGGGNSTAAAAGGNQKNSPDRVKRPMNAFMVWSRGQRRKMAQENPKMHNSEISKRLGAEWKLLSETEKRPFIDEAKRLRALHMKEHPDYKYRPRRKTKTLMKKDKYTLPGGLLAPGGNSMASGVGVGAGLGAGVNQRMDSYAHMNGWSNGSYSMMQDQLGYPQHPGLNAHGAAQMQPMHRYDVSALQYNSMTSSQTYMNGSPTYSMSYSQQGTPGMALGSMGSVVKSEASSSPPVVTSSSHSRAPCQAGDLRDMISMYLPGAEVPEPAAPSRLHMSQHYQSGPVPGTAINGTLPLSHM

B1: ID1101: enhancer fragment, SEQ ID NO: 4 (nucleic acid)
DNA: GTGAGTGTGACTCACATGCTGGCATCAGAGCCCCTCTTAGAGCTTAGAACACTGGGCCTCTGTCAGGCAAAGAAAAGGAGTCCCTATGAATAGCCATCTCCACAAATAGCAGTTACTGTCACTTCTTAAAAGACACAAGCATGGCTGGAGACCGGCACTG
**Q.** What does the source list for B1?
**A.** SOX2 enrichment in pull down (mass spectrometry) (G7 nuclear extract): 4.4 fold; SOX2 enrichment in pull down (mass spectrometry) (GSC328 nuclear extract): 23 fold
